According to the DeepSol protein solubility set:

assay: soluble on expression in E. coli; label from the status in PepcDB or PDB records

| Sequence | soluble on expression in E. coli |
| --- | --- |
| SLTRNNELIAVGKGSSLKRLPVFGMEPRILYNPLQGQKCIVQTTSWSQCSKTCGTGISTRVTNDNPECRLVKETRICEVRPCGQPVYSSLKKGKKCSKTKKSPEPVRFTYAGCLSVKKYRPKYCGSCVDGRCCTPQLTRTVKMRFRCEDGETFSKNVMMIQSCKCNYNCPHANEAAFPFYRLFNDIHKFRDEG | not soluble |
| SAAANPWDPASAPNGAGLVLGHFIASGMVNQEMLNMSKKTVSCFVNFTRLQQITNIQAEIYQKNLEIELLKLEKDTADVVHPFFLAQKCHTLQSMNNHLEAVLKEKRSLRQRLLKPMCQENLPIEAVYHRYMVHLLELAVTFIERLETHLETIRNIPHLAANLKKMNQALAKMDILVTETEELAENILKWRKQQNEVSSCIPKILAEESYLYKHDIIMPPLPFTSKVHVQTINAK | soluble |
| MGSDKIHHHHHHMFEKRVLKIKGGSNFRDLGGYQTHDGKKILWGRLFRGSALNNFTNHDLRVLKRRHINTIIDFRSLDESLNDPDIYPETSNDIRLTVLDQDTTYSTITPEEFHRLSHSNGFAYKQMMNTYRRLITDEFSQQAYRQFFDYLLNQDDGAILFHCTKGKDRTGIATALFFLAVGIDKKTIFQDYLLTDTYNHEQTEVELERMVERGEDDDDIDNVKHFLLTDRNYLENAFAAMDEIAGSPQAYLKKYLGLSDEKIQILRNKYLS | not soluble |
| MSDNYKFFRHDNCEYFPCHKVKDKETFNCLFCYCPLYFLENCGGNKSDFNGVKDCSNCLIPHSKNGYDYIINKIREVNKEKRAKNNLTLEHHHHHH | soluble |
| MPEGKIIKALSGFYYVLDESEDSDKVIQCRGRGIFRKNKITPLVGDYVVYQAENDKEGYLMEIKERTNELIRPPICNVDQAVLVFSAVQPSFSTALLDRFLVLVEANDIQPIICITKMDLIEDQDTEDTIQAYAEDYRNIGYDVYLTSSKDQDSLADIIPHFQDKTTVFAGQSGVGKSSLLNAISPELGLRTNEISEHLGRGKHTTRHVELIHTSGGLVADTPGFSSLEFTDIEEEELGYTFPDIREKSSSCKFRGCLHLKEPKCAVKQAVEDGELKQYRYDHYVEFMTEIKDRKPRY | not soluble |
| MGSDKIHHHHHHMINSGNGTDYESMRFDRRGQAEAFDAIGDRYDEAFPHKEGQVSVGEWLIGSLPPRSRVLDLGCGTGMPTARQLTDAGFDVVGVDLSGGMVELARAYVPGATFHQLDVADLRPGGSRDLGRFDAVAAFFSLLMLPRPEIPLALLTVRHLLVPGGLFALAMVEADVDDFSIPFVGHTIRVSGYLREDLHTVIETAGFEIVKEFSYTYAPSVADVPPEEQVFLCCRRRG | not soluble |
| MTTLYLASGSPRRQELLTQLGFSFEQVVPGIEEQRRAQESAQQYVVRLAREKAQAGVALVPRDLPVLGADTIVVLNGEVLEKPRDAAHAAEMLRLLSGNTHQVMTAVALADSQQTLDCLVVTEVTFRTLSAQDITGYVASGEPLDKAGAYGIQGRGGCFVRKINGSYHAVVGLPLVETYELLSHFNALRDKRDKHDG | not soluble |
| MPNVVGVQFQKAGKLEYYAPNQLDVEVGDWVVVQSKRGIEIGHVKFPLREVDVEDVTLPLKNIIRKMNEDDQETYYRNERDANDALELCKKVVKDQQLDMRLVNCEYTLDKSKVIFNFTADDRIDFRKLVKVLAQNLKTRIELRQIGVRDEAKLLGGIGPCGRSLCCSTFLGDFEPVSIKMAKDQNLSLNPTKISGACGRLMCCLKYENDYYEEARTQLPDVGDMIQTPDGHGKVIGLNILDISMQVKIEGLEQPLEYKMEEIEVLNLEHHHHHH | not soluble |
| MSLNELPRPDMMFGLKVVLAATDFSARSDRAVRRAAALARQSGARLVIAHVVDDDQPEHIVAVEVELAESALADAIREHTYLAGLQCTPLVLLGTPFDAIVRAAHQQGADLCVVGSHRRAFLRDIFAGTTAERVIRNSTVPVLMANLDPALPYAKSLAPVDLTDCSAQALETARQLGLLQRTKLIVMHVYDAAAAGMLNYAGVDKTSLDDYLVDTRTDAVRDLVRFLEPLRLDDVDYSTVVKEGAGPATDIIEAATELRPDLVVIGTHARRGAVRLLLSSVTEEVLRRLQRDILVVPVRDAGSEGHHHHHH | soluble |
| MGMLGLDLLKEVPGLLEEIKALPLRLDEERFRFWLQQDYPFVEALYRYQVGLLLEAPQAHRAPLVQALMATVEELDWLLLQGASPSAPVHPVRAGYIALLEEMGRLPYAYRVVFFYFLNGLFLEAWAHHVPEEGPWAELSQHWFAPEFQAVLYDLEVLARGLWEDLDPEVVRTYLRRILEAEKATWSLLL | soluble |
| MGSDKIHHHHHHMEVIHPRCAGVDISKKDAKVCVRIQGRGGRSTTSTITTWGSMTGQILGLKEHLLDEHVDLVVMEATGDYWRPFYYLLEDDGLNIILVNAHDARNVPGRKTDVSDAAWLADLGAHGLVRASFVPPPPIRELRDLTRARTIITQERTREIQRLEKLLEDACIKLSSVASNITGVSGRLILQALIDGQTDPAALAEMAQRRLRSKIPELTQALNGRFTEHHRYMTGLYLHRIDAHTADINDLSARIEAAMEPFRFARELLVSIPGFSTTIAEIFIAETGADMSAFATAGQLASWAGTSPGSNESAGRVKSTKTRPGNRYLKGALGIAALSCAKSKNTYLGARYRRIASRRGPAKALVAVEHSILTAAWHMLTTGELYNDPGADYFTRQTPVKTMARAVRQLESLGYQVILEPLQQTG | not soluble |
| GPLGSMIVFVRFNSSHGFPVEVDSDTSIFQLKEVVAKRQGVPADQLRVIFAGKELRNDWTVQNCDLDQQSIVHIVQRPWRK | soluble |
| MSHLNYETRLPLGQATIDHFMGLPAHPTKCQATYVWIDGTGEHLRAKTRTINTKPQYLSEYPIWNYDGSSTGQADGLNSDRYLRPVAVFPDPFLGGLNVLVMCDTLDHEMKPTATNHRQMCAELMKKVSDQQPWFGMEQEYLIVDRDEHPLGWPKHGYPAPQGKYYCGIGADRAFGREVVETHYRACLHAGITIFGSNAEVTPGQWEFQIGTCLGIEMGDQLWMARYILHRVAEQFGVCVSLDPKPRVTMGDWNGAGCHTNFSTIDMRRPDGLETIIAAMEGLKKTHSEAMKVYDPNGGHDNLRRLTGRHETSQADQFSWGIANRACSVRIPRQVADEGRGYLEDRRPSSNCDPYLVTAMIVKSVLIN | not soluble |
| QMPQPLAYAQALLAQFASLARAVNGAQLLGDFVRSLAELSGCELSQLYLLDATHKCLKMRAECLDGTLQPREAASLPVDYNGEQLLQFALCQNRVVCLGELSGSLHETSFLPTQSTPWQSLLCVPVVNHQQAVEGLLLCASRRHVDLQGFADSLGQFGSFALGQLNLLQRLHKPADEVRPAGITMPSVSGYG | not soluble |
| MGHHHHHHGGHMSLIISSLTNPNFKVGLPKVIAEVCDYLNTLDLNALENGRHDINDQIYMNVMEPETAEPSSKKAELHHEYLDVQVLIRGTENIEVGATYPNLSKYEDYNEADDYQLCADIDDKFTVTMKPKMFAVFYPYEPHKPCCVVNGKTEKIKKLVVKVPVKLIEGGS | soluble |
| DSNALWMPYVNGRIRVIVMRNGGGGIFRFIPGPDSLKELETCFETPLEVPVREMAGAYGWRYMKAVSAEELETVLPSFFASGDRAVLLEVETPRFENAPVLKSYFTYISGESYPVNR | not soluble |
| MKATLHPYQEYSKNFILDHPYCALMLDMGLGKTLSSLTAIDELLHTFEIIENVLVIAPLSVAEKTWTDEIEKWDHLQHLTFSKVLGNPKQREEALFKKADVYLINRENVEWLVNYYQRNWPFKTVIIDELSSFKSSSAKRFKALRKVRPKMERVIGLTGTPSPNSLMDLWAQMYLLDQGERLGKTITQYRNKYFVPAQKNGHIVYSWQLIPGAEEAIYNKISDICVSMKAKDYLRLPPRTENIIELDLNPTSWKQYKELEREYVLELEGTDVVASNAATLSNKLLQLSNGAVYDENGDGREIHQEKLNALERVIEDAQGQSVLVFYQYQHDLERIQARFKQAKALNVSDGDIEKWNEGKISLLLAHPQSAGHGLNLQKGGHIIVWFGLTWSLEFYQQANARLDRQGQTQPVIIHHLVTKGTIDEQVIKALQAKEQGQSALMAAVKAKIEEYRGDKLG | not soluble |
| MRVHKVKFLNQHELTKLLALLDLDHGLDWDYFLLLIAKTGLRFGEALGVTPMDFDMAKLTLTINKTWDYKSATGSFAETKNTASVRKVPLDWQVAMQFAAQIKSLPQDKPIFVTDGQRVYNETANDILERKCKRASIPVISIHGLRHTHASLLLYAGVSVGSVARRLGHANMSTTQKTYLHILEHHHHHH | not soluble |
